Results: the nanobody polyreactivity screen of Harvey et al. (2022)

Assay: yeast display, Sf9 membrane polyspecificity reagent, FACS + sequencing; frameworks hold sequencing errors
In short: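 A nanobody's polyreactivity label depends on the gate it was sorted from. Yeast display cells were stained with 10% biotinylated, detergent-solubilized Sf9 membrane reagent for 1 hour at 4 °C, enriched on streptavidin microbeads and sorted by FACS. The low and high (top ~1%) gates were set on anti-HA fluorescence for expression and streptavidin fluorescence for reagent binding.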

Sequence	polyreactivity (PSR sort gate)
QVQLVESGGGLVQAGGSLRLSCAASGRTFRNNAMGWYRQAPGKERELVASISKSGGRTYYADSVKGRFTISRDNAKNTVYLQMNSLKPEDTAVYYCAAYRIHVYPAGLSWQYYYELDYWGQGTQVTVSS	high polyreactivity
QVQLVESGGGLVQAGGSLRLSRAASGSTFVENAMGWYRQAPGKERELVAAISSSGDSTFYADSVKGRFTISRDNAKNTVYLQMNSLKPEDTAVYYCAADRRINYDGLDMDYWGQGTQVTVSS	low polyreactivity
QVQLVESGGGLVQAGGSLRLSCAASGSTFAKYVMGWYRQAPGKERELVAAISTRGTRTYYADSVKGRFTISRDTAKNTVYLQMNSLKPEDTAVYYCAVVTIISSRLGNYWGQGTQVTVSS	high polyreactivity
QVQLVESGGGLVQAGGSLRLSCAASGRIFNINAMGWYRQAPGKERELVAAITWRSGSTYYADSVKGRFTISRDNAKNTVYLQMKSLKPEDTAVYYCAADFSQTRRPIRFYYWGQGTQVTVSS	high polyreactivity
QVQLVESGGGLVQAGGSLRLSCAASGLIFYANVMGWYRQAPGKERELVAAISRSGTSTYYADSVKGRFTISRDNAKNTVYFQMNSLKPEDTAVYYCAADFVKRQANRQFDYWGQGTQVTVSS	high polyreactivity
QVQLVESGGGLVQAGGSLRLSCAASGSISTWYAMGWYRQATGKERELVAAINSGDSTYYADSVKGRFTISRDNAKNTVYLQMNSLKPEDTAVYYCAASSYSSKPFDYWGQGTQVTVSS	high polyreactivity
QVQLVESGGGLVQAGGSLRVICAASGSTFLENAMGWYRQAPGKERELVAAISRSGARTYYADSVKGRFTISRDNAKNTVYLQMNSLKPEDTAVYYCAASHGKNKASGPMDYWGQGTQVTVSS	high polyreactivity
QVQLVESGGGLVQAGGSLPLSCAASGRIFNYYAMGWYRQAPGKERDFVATISTSGGSTYYADSVKARFTISRDNAKNTVYLQMISLKPEDTAVYYCAARRYYSLRTFLYWFSKYDYWGQGTQVTVSS	high polyreactivity
QVQLVESGGGLVQAGGSLRLSCAASGSIFRINAMGWYITAPGKERELVAAISWSGGSTYYADSVKGRFTISRDNAKNTVYLQMNSLKPEDTAVYYCAAVVSKSSFDYWGQGTQVTVSS	low polyreactivity
QVQLVESGGGLVQAGGSLRLSCAASGSIFTFYDMGWYRQAPGKERELVAAISSGGSTTYADSVKGRFTISRDNAKNTVYLQMNSLKPEDTAVYYCAADSQPYLYPVEYDYWGQGTQVTVSS	low polyreactivity
QVQLVESGGGLVQAGGSLRLSCAASGYTFPYYTMGWYRQAPGKERELVAAISSGGRTKYADSVKGRFTISRDNANNSVYVQMNSLKPEDTAVYYCSARSSYSFAFFWPAYNYWGQGTQVTVSS	high polyreactivity
QVQLVESGGGLVQAGGSLRLSCAASGSTFRPYAMGWYRQAPGKERELVAAITSGGNTYYADSVKGRFTISRDNAKNTVYLQMNSLKPEDTAVYYCAARPYYYIVRGTEYDYWGQGTQVTVSS	high polyreactivity
QVQLVESGGGLVQAGGSLRLSCAASGITFPGYAMGWYRQAPGKERELVAAISIGGITYYADSVKGRFTISRDNAKNTVYLQMNSLKPEDTAVYYCAKDVTDPSSRSDPSGDDYWGQGTQVTVSS	low polyreactivity
QVQLVESGGGLVQAGGSLGLSCAASGRSFRYYAMGWYIQAPGKERELVAAINWSGGSTYYADSVKGRFTISRDNAKNTVYLHMNRLKPEDTAVYYCNTRWYVGDDWGQGTQVTVSS	high polyreactivity
QVQLVESGGGLVQAGGSLRLSCAASGRTFADYAMGWYRQAPGKERELVAAISWRGGSTYYADSVKGRFTISRDNAKNTVYLQMNSLKPEDTAVYYCNKAYPADYDYWGQGTQVTVSS	low polyreactivity
QVQLVESGGGLVQAGGSLRLSCAASGSTFTLNAMGWYRQAPGKERELVADISWSSGRTYYADSVKGRFTISRDNAKNTVYLQMNSLKPEDTAVYYCNKDDNSYGLNYWGQGTQVTVSS	low polyreactivity

Sequence	polyreactivity (PSR sort gate)
QVQLVESGGGLVQAGGSLRLSCAASGSTCRGYAMGWYRQAPGKEREFVAAISRRGGTTYYADSVKGRFTISRDNAKNTVYLQMNSLKQEDTAVYYCNKVYYQHYLAFDYWGQGTQVTVSS	high polyreactivity
QVQLVESGGGLVQAGGSLRLSCAASGFIFGRYTMGWYRQAPGKERELVAAISGSDVSTYYADSVKGRFTISRDNAKITVYLQMNRLKPEDTAVYYCAADAPWAYYEYDYWGQGTQVTVSS	low polyreactivity
QVQLVESGGGLVQAGGSLRLSCAASGRTLRWYAMGWYRQAPGKERELVAAIRWSGGSTYYADSVKGRFTISRDNAKNTVYLQMNSLKPEDTAVYYCAAYYVARDRRYPKAYSYEYWGQGTQVTVSS	high polyreactivity
QVQLVESGGGLVQAGGSLRISCAASGRTFPWYAMGWYRPAPGKERELVADITWSGGSTYYADSVKGRFTISRDNAKNTVYLQMNSLKPEDTAVYYCATRVLFWYRKYPGRPLTKYDYWGQGTQVTVSS	high polyreactivity
QVQLVESGGGLVQAGGSLRLSCAASGRTFHDNAMGWYRQAPGKETELVAAISWRGGSTNYADSVKGRFTISRDNAKNTVYLQMNSLKPEDTAVYYCNRDPRKYGKLDYWGQVTQVTVSS	low polyreactivity
QVQLVESGGGLVQAGGSLRLSCAASGSTFNAYDMGWYRQAPGKERELVAAISTSGDSTYFADSVKGRFTISRDNAKNTVYLQMNSLKPEDTAVYYCARDIYHYGYDYWGQGTQVTVSS	low polyreactivity
QVQLVESGGGLVQAGGSLRLSCAASGFTFSLYDMGWYRQAPGKERQLVADINGSGGSTYYADSVKGRFTISRDNAKNTVYLQMNSLKPEDTAVYYCAAGPPSRWWYIVDYGYWGQGTQVTVSS	high polyreactivity
QVQLVESGGGLVQAGGSLRLSCAASGSIFPQYAMGWYRQAPGKERELVAVISWSGGRTYYADSVKGRFTISRDNAKNTVYLQMNSLKPEDTAVYYCAAKYWYQRYAQSSYTRYYWGQGTQVTVSS	high polyreactivity
QVQLVESGGGLVQAGGSLRLSCAASGRTFGYNAMGWYSQAPGKERELVAAISYSGGRTYYADSVKGRFTISRDNAKNTVYLQMNSLKPEDTAVYYCAAKNPYKYDYWGQGTQVTVSS	high polyreactivity
QVQLVESGGGLVQAGGSLRLSCAASGTFAGNAMGWYRQAPGKERELVAAITTGGRTYYADSVKGRFTISRDNAKNTVYLQMNSLKPEDTAVYYCAADRIRDLEFDYWGQGTQVTVSS	low polyreactivity
QVQLVESGGGLVQAGGSLRLSCAPSGRTFGGYVRGRYRQAPGKERELVATITYSGGSTHYADSVKGRFTISRDNAKITVYLQMNSLKPEDTAVYYCARRRSYRYPSEYNYWGQGTQVTVSS	high polyreactivity
QVQLVESGGGLVQAGGSLRLSCAASGIIFDRYTMGWYRQAPGKERELVAAIDDSDDSTYYADSVKGRFTISRDNAKNTVYLQMNSLKPEDTAVYYCAAEYTWFEYIDFGYWGQGTQVTVSS	high polyreactivity
QFQLVESGGGLVQAGGSLRLSCAASGYTLEYNAMGWYRQAPGKDRELGARIRWSGSSTYYADSVKGRFTISRDNAKNTVYLQMNSLKPEDTAVYYCATRYRRWKYDYWGQGTQVTVSS	high polyreactivity
QVQLVESGGGLVQAGGSLRLSCAASGFTFYRYAMGWYRPAPGKERELVAAITSGGSTYYADSVKGRCTISRDNAKNTVFLQMISLKPEDTAVYSCAAQKARVSPGAWTRYVYWGQGTQVTVSS	high polyreactivity
QDQLVESGGGLVQAGGTLRLSCAASGRIFKSYAMGWYRQAPGKEREVVASISYTGGSTYYADSVKGRFTISRDNAKNTVYLEMNSLNPEDTAVYYFAAKRVRSAGSYGYWGQVTQVTVSS	low polyreactivity
